According to article PMC4498601, “Two high-mobility group box domains act together to underwind and kink DNA”:

Target: T1, HMGB1 box A (Rattus norvegicus (rat), UniProt P63159 8-81)
T1 sequence: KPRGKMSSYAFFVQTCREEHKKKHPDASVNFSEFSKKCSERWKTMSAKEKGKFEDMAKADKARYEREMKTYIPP
Test: X-ray crystallography; 2.0 A; 40 mM MgCl2, 50 mM sodium cacodylate pH 6.0, MPD; two box A per kinked duplex, one further duplex almost unbound; EMSA: 0.33x TBE (30 mM Tris-borate, 0.66 mM EDTA), 3% glycerol, 30 min incubation (temperature not stated), 6% native PAGE at 4 C; crystal complex: 1.6 mM protein, 0.8 mM DNA, about 1 h at 4 C
Settings: protein: recombinant; tags: GST tag removed by thrombin; chain copies: 2; blunt; self-complementary decamer, 2 copies of the strand

B1: d(ATATCGATAT)2 (dsDNA)
DNA 1: ATATCGATAT
DNA 2: ATATCGATAT
B1: binds.
